Measurements: the PETadex activity labels

B1: unnamed (protein)
chain: MSTGTRVPHAGRAATAPVEGPRQRGRKMQHSLSTSRSRKRVTGILASLAVAVGVGIAAGPVAHGADNPHERGPDPSESSIEAVRGSYSISDRNVSSWVSGFGGGTIYYPTTTSDGDFGAVVISPGYTGTESTISWLGPRLASQGFVVLTMATNSIYDQPDSRARQLQAALDYLTDDSPVADRIDPDRLALMGHSMGGGGTLRAVDDNPDIKAAIPMTPWHLKKDWSSVTTPTLIFGAEDDSVARHETHAEPFYESFDRDLPKAYLELDGASHFAPNYSNTTIAKYSISWLKRFVDDDERYTQFLCPGPSTGWFSDVEKYESSCPL
B2: unnamed (protein)
chain: MKSFVKMCVGCVLALVMLAGISSADYRRGPNPSDSMLEARTGPFDFERSTVSRLSAGGYGGGTLFYPTNTNEGPFAGIVVCPGYMESDGQVDWWGPRLASNGFVVFVMQPQNTYMNQPSQRGNQMLDALDDLVSWNNSRNHAIYGLLDPNRLGLMGHSMGGGGTLIAAEDEANNPAVKAAIPLAPYALEKDFSRITCPTMIVACGADMIAPVAQHAMPFYRSLSDSIDKMFIEFAGDSHFCVIDGNMHMPTLGKLGIAWMKVFMDEDARYLTFLNDTNYGATMEVSRFQSNRPYSVPGGGTSGDCQQWTSSNDQHVSAGRAYTQQETVGCDTVTTYYAVGSNMSIGTSGYSSTTLHSSDGGNSYYTGSCP
B3: unnamed (protein)
chain: MKNITIRSTVRAAVAATLAATAVSGFAQTTAPTSASLNATAGPLAVSTSTVTAPRGFGGGTIYYPTTQARYGVIAISPGFTATETSLAWLGRRIATHGFVVITLNTLTTLDQPASRATQLMAALNHVVNSSPAAVKARIDTARLAVAGHSMGGGGALIAARDNPTLKASYSLTPWNTNSSFSTVRVPTMIVGADGDTIAPVGTHARPFYAALPGTTSKAYGELNNGTHFSPNSTNTPIGRYGVAWMKRFLDADTRYSTFLCGAEHTSYATALVFDRYNQNCPY
B4: unnamed (protein)
chain: MPMSLASASTLSGRAYSRSMRSRTRRRRARSRRRVPPVSARAETSKGSIGMPSSYGGARRGFSLGHPRGVRRGCVQATRRVRFLDWPRPAASRGAGDPSRGDTMTGTISSRIAMRAVACCIGLFAFTAGSASAQIGPDPTSASLNATAGSFAVSTSRVTLARGFGGGTIYYPTAAGSYGVVAISPGFTATESSIAWLGRRLATHGLVVITMNTNTTLDQPASRATQLMAALNHVVNSASSTVRSRVDSTRLAVAGHSMGGGGALIAAEDNPTLKAALPLTPWNLSTSFTQVRVPTLIVGSDGDTVAPVAAHARPFYASLPATTFKAYAELNAASHFTPNSTNTPIGRYGVTWMKRFVDADTRYSPFLCGAPHTAYATALVFDRYSQNCPY
B5: unnamed (protein)
chain: MKTSVTNFAKVTLTVATLLASAIASAQYTKGPDPTVAGLERDGSFTVRTTTVSSLAAVGFGKGTIYYPSAAGSYGVIAVSPGFTAYQSSISWIGSRLASHGFVVITIDTNTTSDQPDSRGSQLKAALDKVVSLSKSSSNVLYNKVDASRLAVAGHSMGGGGTLSAARDNPSYKAAVPLAPWHTTKSWPTLTVPTLIIGGEGDTVAGVSSHSIPFYTSISNSTKKAYMELNGEDHFFPQDATQYPLVGKYMISWFKRFVDNDTRYSAFICGAPHQTQIAVASKISDYRSNC
B6: unnamed (protein)
chain: MKKLALKKLAACTFSLLFSLSAYSGGGDDGSNSGELPPPSTCSINCGFEIGPDPSLSFVRASQGPLPVSTSIVSSSVDGFGGGTIYYPSTITDEMATIAISPGFTASQSAIAWWGPLLASHGFVVITIDTNGTFDQPTSRGRQLDSALNYLISEGNRANSPVAGLIDENRLATMGHSMGGGGALQSAARNRLSASVPLAPFNTGSNDFNQINVPTMIMGCEDDGVAPVNSHAIPFYQDIPGTTDKALLEIANGPHNCANGGSSNNPTLSTYGVSWMKRFLDKDRRYDQFLCGPDHIADSRISDFRDTCTF
B7: unnamed (protein)
chain: MKKSIFSKLVVSAGALLLSSTLYASGGGSGGGGSVPPVGNNPCGPDPSSSALSRTGSSGPFSVATKNVSSFSASGFGGGTIHYPTNSNCGRMGGIAVVPGYVSYESSIEWWGPRLASWGFVVITINTNSIYDQPNSRADQLSAALDHIIDDSTVGSLVDPDRLGAIGWSMGGGGSLKLATDRARVRAIIPQAPWYSGSYGSMDTPAFMIACENDAIAPTSSHVDDFYRDASGPKMKIEVNNGSHYCANSGYNESLLGKPGIAWMKRYIDGDTRYNQFLCGNESYGSSYEVSDYDYASCP
B8: unnamed (protein)
chain: MKTTTFKKSALSALTLLFSLSAFSGGGGGDDGNNDQLPAPDTCNSNCGYEIGPNPTLSFLEASQGPLSVSTTNVSSSVDGFGGGTIYYPTNTSQEMAAIAVAPGFTNTQSAIQWWGPILASHGFVVITIDTNGRFDQPESRSRQLDAALSYLISEGNRSSSPISGLVDENRLATMGFSMGGGGTLRSASRNRLSAAVPLAPWNTGGNNFDQIGVPTLIFACENDSTARVNSHASPFYNRIPSSTDKAYLEINNGPHNCANGNNSSNNALLSTYGVSWMKRFLDKDSRYNQFLCGPNHEANSRISEYRDTCNY
B9: unnamed (protein)
chain: MATMPSGTTALLSVTFFCTTPPSALSLKRHRYPSFRFRSPISVFLSRTHDYMQCRAPWGCMYSLGTPRGSVASRRTINEFLVGGVTQMNTKVQGSSASSAPKVGYPAKSLLAAGILLASFAANADVLFQEDFNAGLGQFTSGGDVTVTSSGARMQGCYGCTDGSITSGAISTVGFNTISLTFTRSTTGLDSGEAGIAEFSTNGSTWTTLESVRTASGARTVALPSTAAGQSALRIRFRINASLSSEYYTVDGVRVEGTPDGTPCTDCPPTGETAIGPDPTTATLEATAGSFTVATINVPSSVTGYGGGVIYYPTAAGTYGVVAMCPGYTASASSLAWWGTRLASWGLIVHIIDTNSTGDFPASRATQLIAALDYVKALNTSSTSPLRGKVANREAVSGHSMGGGGTLIAANNNASRTTLRAAFAMTPWSSSPDSFPSIRAATFVLGCESDNVASVSSHAYPFYVSIPSTVKKAYGEINNADHYCPTQSNPYKAQLGKYGVAWMKRHLEGDTRFDPWLCGAPHQQVVSGTFWSRYLSTCPY
B10: unnamed (protein)
chain: MKTNRRRRLALAAAALLLSVAAQAQNGSAPPGPDPDPDPNPPESDNPYQRGPDPTAASLEASSGPFAVSTTTVSSASGFGGGTIYYPTNTEGPFAAIAVVPGFVGTESSIDWWGPRLASHGFVVITIDTNSVFDQPDSRATQLMAALDYVISQSNTSSSPISGMVDSNRLGVMGHSMGGGGSLIAARDNPTLKAAIPLAPWNSSTNFSAITVPTLIIACENDTVAPVSSHASPFYNSIPSSTDKAFLEINGGDHFCANSGNSNKDILGKYGVAWMKRFLDNDTRYDPFLCGPNHEADGSAISEYRDTCPY
B11: unnamed (protein)
chain: MRPSSSSLHTAVPLRPRSRAMTALIALATTLGLALALLTAAAPPAAAADLLSQGRPATSSSTENTSTPASAAVDGNTGTRWSSTFSDPQWLSVDLGATATISQVVLRWETAYARAFQIQTSTNGTAWTTVHSSTSGTGGVQTLDVNGNGRYVRMLGTQRGTTYGYSLFEFQVYGSGGGTPPGNGIPDPTATSLETANGPLTTANYTVPNPSGYGSGTVTYPTSSGSYPSVVLMPGYQGTQQNLQWLAPRLASWGFVVVNVGTNTLTDDPESRGRQISAAGTQLLALGNAAGNPLSGKVNGTLGAVGHSMGGGGVMAALRDDSRFRAGVPTAPYHPNANFSSVTEPTFFLTCQSDSVAHGNTYAVPWYNSMSQAEKLYIEVPGDHLCPMTGSGNKAKQGKWIVSFLSLWLRADTRFGPFLCGPVRDPDKNNTSLVTRWMDTCAF
B12: unnamed (protein)
chain: MKTKRHRTATTTVPLPKRSRLARLALAAALLLLSFAAQAQVVIFQENFNSGLGQFTASGTVSTSSGGARMQGCYGCTDGAITSSPISTVGFTNLSLSFDRTTTGLDSGEAGIAEYSTNGSTWTVIESTQSTSSGRVTIALPAAAAGQAALRLRFRVNASLSSETYTVDNIQLEGTPGGGPGGNPYQRGPDPTAALLEASTGPFTYATTTVSSTAASGYGGGTIYYPTNTAGPFAAIAVCPGYTATQSSISWWGPRLASHGFVVITIDTNSTSDQPSSRATQLMAALNQLVTFSNTSGHPIYGKVDPNRLGVMGHSMGGGGTLIAARDNPTLKAAIPLAPWNSSTNFSGVTVPTLIVACESDTIAPVSSHALPFYNSIPSSTKKAYLEINNGDHFCVTTGNSYKAILGKYGVAWMKRFLDNDTRYSPFLCGAPHQADLSGSAISEYRDNCPY
B13: unnamed (protein)
chain: MIHHFSVRALLAAGALLASAAVSAQTNPYERGPAPTTSSLEASRGPFSYQSFTVSRPSGYGAGTVYYPTNAGGPVGAIAIVPGFTARQSSINWWGPRLASHGFVVITIDTNSTLDQPDSRSRQQMAALNQVATLSRTSSSPIYNKVDTSRLGVMGWSMGGGGSLISARDNPSLKAAAPQAPWSSSKNFSSVTVPTLIIACENDSIAPVNQHADPFYDSMSRNPREFLEINGGSHSCANSGNSNQPLLGKKGVAWMKRFIDNDTRYTSFACSNPNSTRVSDFRVAACN
B14: unnamed (protein)
chain: MRDPPEYGTQTLHYPTDADPPFAAIAIVPGFVSPESSIIEWGPFLASHGIVVLTIGTNSGSDSPEIRSTALLAALETIKSEHARAGSPIEGKIDTTRLAVGGWSMGGGGTLLTITAHPELKAGLAICPWYTNAFAFAGNTVPVIMFAGTADVLAGGMSQGFYDAIPASTPKMLFEIAGADHFYANNPLMPNVQVGLYGLSWLKVFLEGDDRYRQFLLGPPQNASDFRTTVQ

Substrate: BHET
Conditions: 120 h

Protein	plate clearing
B1	not clears the plate
B2	not clears the plate
B3	not clears the plate
B4	not clears the plate
B5	not clears the plate
B6	not clears the plate
B7	not clears the plate
B8	not clears the plate
B9	not clears the plate
B10	not clears the plate
B11	not clears the plate
B12	clears the plate (z > 3 vs empty vector)
B13	not clears the plate
B14	not clears the plate
